The assay concerns the target BO2C11 Fab fragment. Kind of assay: SPR, BO2C11 Fab on chip, 25 C, 1:1 model. For orientation: SPR reads the build-up and loss of mass on a sensor chip optically.

Substance “FVIII C2 domain protein H2309A (from UniProt P00451 2189-2351)” registered a Kd of 1.9 pM, a dissociation rate constant (koff) of 2.9e-05 s⁻¹ and a kon of 1.5e+07 M⁻¹ s⁻¹.
For “FVIII C2 domain protein T2202A (from UniProt P00451 2189-2351)” the same measures were 5.8 pM, 3.5e-05 s⁻¹ and 6e+06 M⁻¹ s⁻¹.
In the same order, the values of “FVIII C2 domain protein S2173I (from UniProt P00451 2189-2351)” are 7.3 pM, 0.00011 s⁻¹ and 1.5e+07 M⁻¹ s⁻¹.
Turning to “FVIII C2 domain protein N2224A (from UniProt P00451 2189-2351)”, the dissociation constant (Kd) came to 2.7 pM, the off-rate (koff) worked out at 8.6e-05 s⁻¹ and the kon was determined as 3.2e+07 M⁻¹ s⁻¹.
For “FVIII C2 domain protein Q2311A (from UniProt P00451 2189-2351)” the same measures were 3 pM, 6.8e-05 s⁻¹ and 2.3e+07 M⁻¹ s⁻¹.
For “FVIII C2 domain protein R2307Q (from UniProt P00451 2189-2351)” the same measures were 4.7 pM, 9e-05 s⁻¹ and 1.9e+07 M⁻¹ s⁻¹.
In the same order, the values of “FVIII C2 domain protein K2249A (from UniProt P00451 2189-2351)” are 6.1 pM, 3.7e-05 s⁻¹ and 6.1e+06 M⁻¹ s⁻¹.
As to “FVIII C2 domain protein K2279A (from UniProt P00451 2189-2351)”, the Kd was 26 pM, the dissociation rate constant (koff) came out at 0.00019 s⁻¹ and the association rate constant (kon) was 7.2e+06 M⁻¹ s⁻¹.
“FVIII C2 domain protein T2272A (from UniProt P00451 2189-2351)” returned a dissociation constant (Kd) of 4.2 pM, an off-rate (koff) of 5.4e-05 s⁻¹ and an on-rate (kon) of 1.3e+07 M⁻¹ s⁻¹.
“FVIII C2 domain protein P2300L (from UniProt P00451 2189-2351)” yielded a dissociation constant (Kd) of 5.3 pM, an off-rate constant (koff) of 9.5e-05 s⁻¹ and an association rate constant (kon) of 1.8e+07 M⁻¹ s⁻¹.
“FVIII C2 domain protein Q2213A (from UniProt P00451 2189-2351)” had a Kd of 4.4 pM, an off-rate constant (koff) of 6.1e-05 s⁻¹ and an on-rate constant (kon) of 1.4e+07 M⁻¹ s⁻¹.
In the same order, the values of “FVIII C2 domain protein L2273A (from UniProt P00451 2189-2351)” are 15 pM, 0.00017 s⁻¹ and 1.1e+07 M⁻¹ s⁻¹.
In the same order, the values of “FVIII C2 domain protein H2211A (from UniProt P00451 2189-2351)” are 5.4 pM, 3.8e-05 s⁻¹ and 7.1e+06 M⁻¹ s⁻¹.
In the same order, the values of “FVIII C2 domain protein A2201P (from UniProt P00451 2189-2351)” are 19 pM, 0.00016 s⁻¹ and 8.4e+06 M⁻¹ s⁻¹.
In the case of “FVIII C2 domain protein L2212A (from UniProt P00451 2189-2351)”, the dissociation constant Kd was found to be 1.9 pM, the koff turned out to be 4.4e-05 s⁻¹ and the on-rate (kon) came to 2.3e+07 M⁻¹ s⁻¹.
“FVIII C2 domain protein N2225A (from UniProt P00451 2189-2351)” registered an equilibrium dissociation constant (Kd) of 2.4 pM, a koff of 3.9e-05 s⁻¹ and a kon of 1.6e+07 M⁻¹ s⁻¹.
For “FVIII C2 domain protein E2327A (from UniProt P00451 2189-2351)” the same measures were 2.6 pM, 5.4e-05 s⁻¹ and 2.1e+07 M⁻¹ s⁻¹.
For “FVIII C2 domain protein R2304H (from UniProt P00451 2189-2351)” the same measures were 9.2 pM, 9.2e-05 s⁻¹ and 1e+07 M⁻¹ s⁻¹.
In the same order, the values of “FVIII C2 domain protein K2227A (from UniProt P00451 2189-2351)” are 3.4 pM, 6.4e-05 s⁻¹ and 1.9e+07 M⁻¹ s⁻¹.
As to “FVIII C2 domain protein W2313Y (from UniProt P00451 2189-2351)”, the Kd amounted to 11 pM, the dissociation rate constant (koff) was found to be 8.7e-05 s⁻¹ and the association rate constant (kon) was found to be 8.2e+06 M⁻¹ s⁻¹.
In the same order, the values of “FVIII C2 domain protein K2227Q (from UniProt P00451 2189-2351)” are 2.9 pM, 2e-05 s⁻¹ and 6.8e+06 M⁻¹ s⁻¹.
The substance “FVIII C2 domain protein E2181A (from UniProt P00451 2189-2351)” came in with a Kd of 8.6 pM, a koff of 0.00019 s⁻¹ and a kon of 2.2e+07 M⁻¹ s⁻¹.
“FVIII C2 domain protein Q2222A (from UniProt P00451 2189-2351)” gave a Kd of 5.3 pM, a koff of 3.9e-05 s⁻¹ and an on-rate constant (kon) of 7.4e+06 M⁻¹ s⁻¹.
For “FVIII C2 domain protein N2277A (from UniProt P00451 2189-2351)” the same measures were 5 pM, 6e-05 s⁻¹ and 1.2e+07 M⁻¹ s⁻¹.
In the same order, the values of “FVIII C2 domain protein L2302A (from UniProt P00451 2189-2351)” are 2.4 pM, 5.7e-05 s⁻¹ and 2.4e+07 M⁻¹ s⁻¹.
For “FVIII C2 domain protein T2253A (from UniProt P00451 2189-2351)” the same measures were 9.8 pM, 5.2e-05 s⁻¹ and 5.3e+06 M⁻¹ s⁻¹.
“FVIII C2 domain protein V2223M (from UniProt P00451 2189-2351)”: the dissociation constant Kd was 6.3 pM, the off-rate (koff) was 3.6e-05 s⁻¹ and the on-rate constant (kon) amounted to 5.7e+06 M⁻¹ s⁻¹.
In the same order, the values of “FVIII C2 domain protein Q2316A (from UniProt P00451 2189-2351)” are 25 pM, 0.00032 s⁻¹ and 1.3e+07 M⁻¹ s⁻¹.
In the case of “FVIII C2 domain protein H2269A (from UniProt P00451 2189-2351)”, the dissociation constant Kd worked out at 7.7 pM, the koff was 0.00017 s⁻¹ and the kon came out at 2.2e+07 M⁻¹ s⁻¹.
For “FVIII C2 domain protein Q2270A (from UniProt P00451 2189-2351)” the same measures were 1.5 pM, 0.00018 s⁻¹ and 1.2e+08 M⁻¹ s⁻¹.
In the same order, the values of “FVIII C2 domain protein K2207A (from UniProt P00451 2189-2351)” are 13 pM, 5.9e-05 s⁻¹ and 4.6e+06 M⁻¹ s⁻¹.
In the same order, the values of “FVIII C2 domain protein H2315A (from UniProt P00451 2189-2351)” are 4.9 pM, 7.3e-05 s⁻¹ and 1.5e+07 M⁻¹ s⁻¹.

In general, Kd refers to the concentration at which binding is half-saturated. A lower Kd goes with higher affinity. As a reminder, the koff is a measure of how fast the partners let go of each other. What is called kon is the rate constant with which the complex forms. Low readings indicate slower complex formation, high ones faster complex formation.
